Measured values from the supplement of paper PMC12042874.
± gives the uncertainty stated by the source.

assay: amyloid nucleation score (Sup35N fusion, yeast selection) (log enrichment); library NNK1; higher = more nucleation; inactive = no reads after selection
How it was run: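 DiMSum was used to calculate nucleation scores as log enrichment of output over input reads, centred on the mode score of non-aggregating sequences. Sequences with fewer than 100 input reads were not scored. Input and output came from Illumina sequencing of plasmid inserts in psi-negative yeast expressing peptides of 20 random codons fused to Sup35N, induced 24 hours with 100 μM copper sulfate and then grown 7 days at 30°C on medium lacking adenine and uracil.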

Substance	amyloid nucleation score
LRTGQGHYDRVVGHRHNLCA	-1.42 ± 0.9
LRVNIPVTQSSTVIHY	0.91 ± 0.39
LRWPFCQGLYTYLCSLT	1.39 ± 0.47
LRYFDLVATNHDNMIYDQYL	-0.177 ± 0.68
LRYFGL	inactive
LSAKLQFCITIEYALRVTKC	-0.106 ± 1.7
LSALFLVPHYLDMVNLHSWR	-0.254 ± 0.44
LSDWWKTSMFGYPVYSVVAR	0.62 ± 0.36
LSEEWTIYKFNRRRMKIGRG	0.707 ± 0.4
LSEIFSCENGVVGSNSETLT	-0.107 ± 0.35
LSGVCRIFH	0.584 ± 0.35
LSHTTVRIDMGAAWRSLYSM	2.36 ± 0.13
LSIAHYGLNQSMSVRYREST	0.771 ± 0.66
LSKYGVCVALLCIWMGHNWC	0.22 ± 0.2
LSLCSLYNSWQGM	0.492 ± 0.4
LSMCYIFCDARYLYSQCFGV	4.38 ± 0.12
LSMGAHSGGPLQSY	-0.205 ± 1.1
LSMGLR	0.388 ± 0.68
LSMGRYRPKRFLLRNTSDTL	-0.438 ± 0.44
LSMNICSLNSSRYKPP	2.79 ± 0.098
LSMPMGNLEPL	-0.277 ± 0.19
LSMSTFVKVCDVNAYPKGTA	0.358 ± 1.1
LSQAASNLLSRNLVPLSWLV	inactive
LSRLRLSAAGSADRESLVVS	0.538 ± 0.5

Substance	amyloid nucleation score
LSSCFPIDRSEDSDVYGYFK	-0.252 ± 0.49
LSSGSKYFSKVVDASLVCAC	0.377 ± 0.77
LSSLGDLLLMNQPNAQRLTY	-0.746 ± 1
LSTAWFGQNAHRCLGLVTLA	-0.005 ± 0.59
LSVAHDGSLWVLFRKKPFGL	-0.106 ± 0.57
LSVICMFTY	4.74 ± 0.052
LSVIFTLSFLTAIFAVGIWS	0.301 ± 0.23
LSWCLPCLSARSVRSRRMVT	0.161 ± 0.25
LSWFC	-0.504 ± 0.43
LSWFPA	0.179 ± 0.27
LSYMSLFW	1.94 ± 0.16
LSYNTISGFIAYIIDMSPFV	inactive
LTDLLMFIVPWDNAQRLVCF	0.518 ± 0.89
LTDPLCQTPFFYLFCRDAQE	-0.142 ± 0.4
LTEDPGIRSSQR	0.055 ± 1
LTFCCIMYSIYHSQPDFCGL	2.37 ± 0.099
LTFLYLYWNFNIYGIYGTTI	0.91 ± 0.19
LTFRRRYRWGQGTCINFCRR	0.082 ± 0.67
LTFTLTDPDSHDANDKWPLH	-0.208 ± 0.66
LTGASSNTSVLVNWGVASYC	1.13 ± 0.62
LTGLVMTVCFFWKARRF	0.845 ± 0.86
LTHCAWVAFDA	1.7 ± 0.52
LTPRRYIWTYLSWGDAGLEL	1.02 ± 0.9
LTRAWSGWYVTFMGGEILIR	-0.118 ± 0.49

Substance	amyloid nucleation score
LTSFSTDPISGLLAGCFSID	inactive
LTSRNYESIY	-0.159 ± 0.24
LTTYFHFMSMTEWAWRRRSK	0.538 ± 0.29
LVALDNAENFRSRKQWIGIR	-0.599 ± 1.2
LVCDQLLIITLKCDERHQVT	7.474 ± 0.074
LVCFGFSNNCCELCCYYSNL	0.765 ± 0.61
LVFDGNLETCRQ	0.164 ± 0.61
LVGRSFSCEPRLYTFCEFCG	2.61 ± 0.18
LVITVYLYVRRDFCFAFGWL	-1.06 ± 1.2
LVLSWSWICFL	7.39 ± 0.059
LVLVNSTWCTYPCGWMCEME	0.488 ± 1.2
LVMHVSWNVFIAVVLIFKDG	0.375 ± 0.43
LVMYCWRTYVYLRTSRGYDA	0.259 ± 0.61
LVNGTMFINPCYVQGRCKEM	2.27 ± 0.12
LVNRVKRCAMNVHLSIGGDR	-0.479 ± 0.44
LVPPVFRP	-1.11 ± 1.1
LVPWGSFFALA	-0.146 ± 0.97
LVQVWLKN	0.43 ± 0.34
LVSQLSFACN	0.92 ± 0.83
LVVLSTVDA	-0.279 ± 0.67
LVVNEFALVNKPDINFCLPQ	4.56 ± 0.092
LVWRFS	1.56 ± 0.28
